Data: article PMC2173870 (The Journal of Cell Biology, 2002)
“And” between values parts separate entries of the source, which are not always exact repeats. Equal values may be shown once.

Target: the molecule itself
Assay: SEC

RMKKKDEGSYDLGKKPILQQAPTNEFYA (peptide, UniProt P34901 175-202, looked up) [syndecan-4 cytoplasmic tail peptide, PIP2- mutant (Y192KK to LQQ)]
stoichiometry N: 4 and 6
